According to patent US20230340152A1 (published 2023):
Substitutions are numbered along the chain they refer to. Names and notes keep the numbering of the source.

T1: Human CD73 ECD (human, UniProt P21589 27-549)
T1 construct: Biotinylated in some assays; also called human CD73 extracellular domain; huCD73
T1 sequence: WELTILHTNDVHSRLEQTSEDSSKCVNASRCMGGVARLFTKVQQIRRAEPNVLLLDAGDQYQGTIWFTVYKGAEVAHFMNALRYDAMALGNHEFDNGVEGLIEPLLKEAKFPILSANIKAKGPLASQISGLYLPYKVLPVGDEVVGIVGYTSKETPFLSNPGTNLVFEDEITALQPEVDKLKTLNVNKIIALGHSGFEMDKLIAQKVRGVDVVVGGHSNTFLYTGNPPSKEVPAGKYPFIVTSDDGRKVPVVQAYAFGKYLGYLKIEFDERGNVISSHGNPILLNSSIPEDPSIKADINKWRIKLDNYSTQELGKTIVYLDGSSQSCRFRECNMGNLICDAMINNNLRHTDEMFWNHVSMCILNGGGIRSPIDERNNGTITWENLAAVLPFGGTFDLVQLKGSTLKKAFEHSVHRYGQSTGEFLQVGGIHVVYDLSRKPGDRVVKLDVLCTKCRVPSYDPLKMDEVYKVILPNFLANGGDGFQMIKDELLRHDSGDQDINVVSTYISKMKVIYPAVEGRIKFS

T2: Murine CD73 ECD (murine, UniProt Q61503 29-551, limits assumed)
T2 construct: extracellular domain; In-house recombinant ECD; also called murine CD73 extracellular domain; muCD73
T2 sequence (looked up): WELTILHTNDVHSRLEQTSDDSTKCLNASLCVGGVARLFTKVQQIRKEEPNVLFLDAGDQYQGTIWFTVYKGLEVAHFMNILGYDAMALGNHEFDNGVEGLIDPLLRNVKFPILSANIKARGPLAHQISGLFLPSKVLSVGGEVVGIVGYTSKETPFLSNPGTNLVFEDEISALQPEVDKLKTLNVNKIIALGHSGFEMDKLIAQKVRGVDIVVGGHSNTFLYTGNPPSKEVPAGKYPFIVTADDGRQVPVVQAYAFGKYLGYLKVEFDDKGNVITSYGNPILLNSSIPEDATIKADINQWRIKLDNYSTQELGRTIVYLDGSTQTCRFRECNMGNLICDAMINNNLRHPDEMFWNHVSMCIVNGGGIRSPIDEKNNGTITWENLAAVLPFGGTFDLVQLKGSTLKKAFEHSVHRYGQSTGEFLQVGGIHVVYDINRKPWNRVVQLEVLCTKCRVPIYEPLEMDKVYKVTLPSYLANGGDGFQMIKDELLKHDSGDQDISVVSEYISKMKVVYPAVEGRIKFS

T3: Cynomolgus CD73 ECD (cynomolgus, UniProt A0A2K5V5U7 27-549)
T3 construct: extracellular domain; also called cyno CD73
T3 sequence: T1 sequence with M199T, T350A, V466I

T4: Human CD73 on cells (MDA-MB-231, Jurkat CD73 knock-in, NCI-H322) (human, UniProt P21589 27-549)
T4 sequence: T1 sequence

T5: Murine CD73 on cells (4T1, Jurkat mCD73 knock-in) (murine, UniProt Q61503 29-551)
T5 sequence (looked up): T2 sequence (looked up)

T6: Cynomolgus CD73 on MK-1 cells (cynomolgus, UniProt A0A2K5V5U7 27-549)
T6 construct: whole, on cells; also called MK-1 (cyno)
T6 sequence: T1 sequence with M199T, T350A, V466I

B1: CD730002 (antibody, V domains shown)
VH: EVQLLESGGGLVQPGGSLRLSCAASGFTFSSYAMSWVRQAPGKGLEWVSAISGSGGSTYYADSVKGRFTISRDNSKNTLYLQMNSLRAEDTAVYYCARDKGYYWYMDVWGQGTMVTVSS
VL: QSVLTQPPSVSVSPGQTATITCSGDKVGDKYASWYQQKPGQSPVLVIYEDTKRPSRIPERFSGSNSGNTATLTISGTQALDEADYFCQAWDTSFWVFGGGTKLTVL
notes: IgG1-TM format; also called CD730002 antibody; clone 2
B2: CD730002 2C5 (antibody, V domains shown)
VH: EVQLLESGGGLVQPGGSLRLSCAASGFTFSSYAMSWVRQAPGKGLEWVSAISGSGGSTYYADSVKRRFTISRDNSKNTLYLQMNSLRAEDTAVYYCARDKGYYWYMDVWGQGTMVTVSS
VL: B1 VL with T19S, P54L, R56G, L80M, F86Y
notes: IgG1-TM format; also called clone 2C5 antibody
B3: CD730010 (antibody, V domains shown)
VH: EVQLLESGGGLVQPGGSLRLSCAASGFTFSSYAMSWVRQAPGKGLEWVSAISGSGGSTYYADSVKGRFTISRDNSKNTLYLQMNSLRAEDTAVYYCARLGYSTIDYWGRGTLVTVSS
VL: LPVLTQPPSVSGTPGQRVTISCSGSLSNIGRNPVNWYKQVPGTAPKLLIYLNNQRPSGVPDRFSGSKSGTSASLAISGLQSEDEADYYCATWDDSLNGWLFGGGTKLTVL
notes: IgG1-TM format (L234F, L235E, P331S); also called CD730010 antibody; clone 10
B4: Clone D3 Fab (Fab, V domains shown)
VH: EVQLLESGGGLVQPGGSLRLSCAASGFTFSSYAYSWVRQAPGKGLEWVSAISGSGGRTYYADSVKGRFTISRDNSKNTLYLQMNSLRAEDTAVYYCARLGYSTIDLWGRGTLVTVSS
VL: B3 VL with L1Q, P2S, V10A, K38Q, V40L, N52D, Q54L, P56L, N97I
notes: Bacterial Fab from the combinatorial library
B5: CD730002 SGMY (antibody, IgG1, V domains shown)
VH: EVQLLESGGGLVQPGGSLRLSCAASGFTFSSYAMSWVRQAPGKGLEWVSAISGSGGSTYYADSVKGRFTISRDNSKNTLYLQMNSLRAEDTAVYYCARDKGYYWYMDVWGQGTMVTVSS
VL: B1 VL with T19S, R56G, L80M, F86Y
notes: IgG1-TM; non-germlined VH, fully germlined VL (S20, G57, M81, Y87); also called Clone 2 SGMY

Tests used:
Human CD73 ECD [1] = molecular target: T1, Human CD73 ECD; assay: SPR (Proteon)
Murine CD73 ECD [2] = molecular target: T2, Murine CD73 ECD; assay: SPR (Proteon)
Cynomolgus CD73 ECD [3] = molecular target: T3, Cynomolgus CD73 ECD; assay: SPR (Proteon)
[4] = molecular target: T4, Human CD73 on cells (MDA-MB-231, Jurkat …); assay: cell-based or functional assay
[5] = molecular target: T5, Murine CD73 on cells (4T1, Jurkat mCD73 …); assay: cell-based or functional assay
Human CD73 ECD [6] = molecular target: T1, Human CD73 ECD; assay: cell-based or functional assay
[7] = molecular target: T4, Human CD73 on cells (MDA-MB-231, Jurkat …); assay: cell-based or functional assay; remark: listed apart in the source
[8] = molecular target: T4, Human CD73 on cells (MDA-MB-231, Jurkat …); assay: flow cytometry on cells
[9] = molecular target: T5, Murine CD73 on cells (4T1, Jurkat mCD73 …); assay: flow cytometry on cells
[10] = molecular target: T6, Cynomolgus CD73 on MK-1 cells; assay: flow cytometry on cells
Human CD73 ECD [11] = molecular target: T1, Human CD73 ECD; assay: binding assay, format not stated
Murine CD73 ECD [12] = molecular target: T2, Murine CD73 ECD; assay: binding assay, format not stated
Cynomolgus CD73 ECD [13] = molecular target: T3, Cynomolgus CD73 ECD; assay: binding assay, format not stated
[14] = molecular target: T4, Human CD73 on cells (MDA-MB-231, Jurkat …); assay: flow cytometry on MDA-MB-231 cells, IgG from 293F cells
[15] = molecular target: CD73 (species and format not stated); assay: binding assay not stated
Human CD73 ECD [16] = molecular target: T1, Human CD73 ECD; assay: capture ELISA and direct ELISA, normalized Fab supernatants
Murine CD73 ECD [17] = molecular target: T2, Murine CD73 ECD; assay: as above
Human CD73 ECD [18] = molecular target: T1, Human CD73 ECD; assay: binding to recombinant human CD73 by flow cytometry, IgG1-TM
Murine CD73 ECD [19] = molecular target: T2, Murine CD73 ECD; assay: binding to recombinant murine CD73 by flow cytometry, IgG1-TM

Binder | Kd (Human CD73 ECD [1]) [pM] | Kd (Murine CD73 ECD [2]) [pM] | Kd (Cynomolgus CD73 ECD [3]) [pM] | FabZAP internalization, EC50, MDA-MB-231 [4] [pM] | FabZAP internalization, maximum toxicity, MDA-MB-231 [4] [%] | FabZAP internalization, EC50, 4T1 [5] [pM] | FabZAP internalization, maximum toxicity, 4T1 [5] [%] | Enzyme Inhibition, rCD73, 1/EC50 (nM) (Human CD73 ECD [6]) [nM⁻¹] | Enzyme Inhibition, MDA-MB-231, 1/EC50 (nM) [7] [nM⁻¹] | Internalization, MDA-MB-231, 1/EC50 (nM) [7] [nM⁻¹] | Kd [8] [pM] | Kd [9] [pM] | Kd [10] [pM] | 1/EC50 (Human CD73 ECD [11]) [nM⁻¹] | 1/EC50 (Murine CD73 ECD [12]) [nM⁻¹] | 1/EC50 (Cynomolgus CD73 ECD [13]) [nM⁻¹] | also measured
B1 | 7 | 40 | 15 | 7.1 | 95 | 206 | 83 | 0.021 | 12 | 0.021 | 52 | 50 | 52 | 0.1 | 0.024 | 0.2 | –
B2 | 9 | 22 | 9 | 9.1 | 98 | 173 | 82 | – | – | – | 84 | 55 | 63 | – | – | – | fold lower EC50 than parental CD730002SGMY [14]: 3 fold
B3 | 3580 | 2470 | 1920 | – | – | – | – | 0.0062 | 0.33 | 0.0062 | 8000 | 6100 | – | 0.0034 | 0.0024 | 0.0033 | EC50 [15]: 69000 pM
B4 | – | – | – | – | – | – | – | – | – | – | – | – | – | – | – | – | binding result (Human CD73 ECD [16]): binds; binding result (Murine CD73 ECD [17]): binds
B5 | – | – | – | – | – | – | – | – | – | – | – | – | – | – | – | – | binding result (Human CD73 ECD [18]): binds; binding result (Murine CD73 ECD [19]): binds
